The values below come from paper PMC3136212, “Identification of the DNA-Binding Domains of Human Replication Protein A That Recognize G-Quadruplex DNA”.

Series [1] concerns the target T1, RPA-CDE-core (human, UniProt P27694;P15927;P35244 436-616;43-171;1-121). Kind of series: FP; 500 mM NaCl; FP: 0.060 uM FAM-oligo, 10-1500 mM NaCl, room temperature; CD: Buffer A 25 mM Tris pH 7.5, 2 mM MgCl2, 6% glycerol, 1 mM DTT, 100 (or 10) mM NaCl, room temperature. Particulars: protein: recombinant; tags: N-terminal His, thrombin-cleaved; copies: 1;1;1; label: 5' 6-FAM; intramolecular G4, antiparallel at 100 mM NaCl, mixed/parallel at 10 mM NaCl.

In series [2] the target is T2, RPA-AB (human, UniProt P27694 181-441). Described as above. The note with it: protein: recombinant; tags: N-terminal His6, thrombin-cleaved; label: 5' 6-FAM; intramolecular G4, antiparallel at 100 mM NaCl, mixed/parallel at 10 mM NaCl.
The target of series [3] is T3, RPA (full-length heterotrimer RPA1/RPA2/RPA3) (human, UniProt P27694;P15927;P35244 1-616;1-270;1-121). The series is described as follows: FP; 1500 mM NaCl; FP: 0.060 uM FAM-oligo, 10-1500 mM NaCl, room temperature; CD: Buffer A 25 mM Tris pH 7.5, 2 mM MgCl2, 6% glycerol, 1 mM DTT, 100 (or 10) mM NaCl, room temperature. The note with it: protein: recombinant; copies: 1;1;1; label: 5' 6-FAM; intramolecular G4, antiparallel at 100 mM NaCl, mixed/parallel at 10 mM NaCl. More on the design: unit not given here.

In series [4] the target is T3, RPA (full-length heterotrimer …). The series is described as follows: FP; 500 mM NaCl; stoichiometric (equilibrium only at 1250 mM); FP: 0.060 uM FAM-oligo, 10-1500 mM NaCl, room temperature; CD: Buffer A 25 mM Tris pH 7.5, 2 mM MgCl2, 6% glycerol, 1 mM DTT, 100 (or 10) mM NaCl, room temperature. Particulars: protein: recombinant; copies: 1;1;1; label: 5' 6-FAM; intramolecular G4, antiparallel at 100 mM NaCl, mixed/parallel at 10 mM NaCl.

In series [5] the target is T1, RPA-CDE-core. Kind of series: FP; 10 mM NaCl; FP: 0.060 uM FAM-oligo, 10-1500 mM NaCl, room temperature; CD: Buffer A 25 mM Tris pH 7.5, 2 mM MgCl2, 6% glycerol, 1 mM DTT, 100 (or 10) mM NaCl, room temperature. More on the design: unit not given here. Particulars: protein: recombinant; tags: N-terminal His, thrombin-cleaved; copies: 1;1;1; label: 5' 6-FAM; intramolecular G4, antiparallel at 100 mM NaCl, mixed/parallel at 10 mM NaCl.

Series [6] addresses RPA-DE (human, UniProt P15927;P35244 43-171;1-121). The description is as above. More on the design: unit not given here. The note with it: protein: recombinant; tags: N-terminal His, thrombin-cleaved; copies: 1;1; label: 5' 6-FAM; intramolecular G4, antiparallel at 100 mM NaCl, mixed/parallel at 10 mM NaCl.
The target of series [7] is RPA-C (human, UniProt P27694 432-595, V435T;W442Q;V465T;V469T;F523S;F567S;I571T). The series is described as above. Set-up: unit not given here. Particulars: protein: recombinant; tags: N-terminal His, thrombin-cleaved; label: 5' 6-FAM; intramolecular G4, antiparallel at 100 mM NaCl, mixed/parallel at 10 mM NaCl.
For series [8], the target named is T3, RPA (full-length heterotrimer …). The series is described as follows: FP; 1250 mM NaCl; FP: 0.060 uM FAM-oligo, 10-1500 mM NaCl, room temperature; CD: Buffer A 25 mM Tris pH 7.5, 2 mM MgCl2, 6% glycerol, 1 mM DTT, 100 (or 10) mM NaCl, room temperature. Set-up: unit not given here. The note with it: protein: recombinant; copies: 1;1;1; label: 5' 6-FAM; intramolecular G4, antiparallel at 100 mM NaCl, mixed/parallel at 10 mM NaCl.

Series [9] addresses T1, RPA-CDE-core. The series is described as follows: FP; 100 mM NaCl; FP: 0.060 uM FAM-oligo, 10-1500 mM NaCl, room temperature; CD: Buffer A 25 mM Tris pH 7.5, 2 mM MgCl2, 6% glycerol, 1 mM DTT, 100 (or 10) mM NaCl, room temperature. Set-up: unit not given here. Particulars: protein: recombinant; tags: N-terminal His, thrombin-cleaved; copies: 1;1;1; label: 5' 6-FAM; intramolecular G4, antiparallel at 100 mM NaCl, mixed/parallel at 10 mM NaCl.

The target in series [10] is T2, RPA-AB. The description is as above. Set-up: unit not given here. The note with it: protein: recombinant; tags: N-terminal His6, thrombin-cleaved; label: 5' 6-FAM; intramolecular G4, antiparallel at 100 mM NaCl, mixed/parallel at 10 mM NaCl.

T1 sequence (P27694 436-616, chain 1 of 3): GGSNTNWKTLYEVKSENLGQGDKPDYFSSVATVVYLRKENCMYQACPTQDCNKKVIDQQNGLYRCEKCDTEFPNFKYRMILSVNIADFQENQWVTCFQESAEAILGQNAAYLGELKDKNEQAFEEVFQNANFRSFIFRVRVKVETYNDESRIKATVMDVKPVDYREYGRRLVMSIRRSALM
T1 sequence (P15927 43-171, chain 2 of 3): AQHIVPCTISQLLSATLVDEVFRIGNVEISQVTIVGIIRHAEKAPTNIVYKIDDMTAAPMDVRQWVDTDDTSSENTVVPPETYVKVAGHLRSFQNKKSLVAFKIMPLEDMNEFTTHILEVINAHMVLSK
T1 sequence (P35244 whole entry, chain 3 of 3): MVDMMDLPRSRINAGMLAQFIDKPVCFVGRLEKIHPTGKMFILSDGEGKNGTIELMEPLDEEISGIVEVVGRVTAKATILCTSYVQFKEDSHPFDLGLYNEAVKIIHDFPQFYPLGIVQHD
T3 sequence (P27694 whole entry, chain 1 of 3): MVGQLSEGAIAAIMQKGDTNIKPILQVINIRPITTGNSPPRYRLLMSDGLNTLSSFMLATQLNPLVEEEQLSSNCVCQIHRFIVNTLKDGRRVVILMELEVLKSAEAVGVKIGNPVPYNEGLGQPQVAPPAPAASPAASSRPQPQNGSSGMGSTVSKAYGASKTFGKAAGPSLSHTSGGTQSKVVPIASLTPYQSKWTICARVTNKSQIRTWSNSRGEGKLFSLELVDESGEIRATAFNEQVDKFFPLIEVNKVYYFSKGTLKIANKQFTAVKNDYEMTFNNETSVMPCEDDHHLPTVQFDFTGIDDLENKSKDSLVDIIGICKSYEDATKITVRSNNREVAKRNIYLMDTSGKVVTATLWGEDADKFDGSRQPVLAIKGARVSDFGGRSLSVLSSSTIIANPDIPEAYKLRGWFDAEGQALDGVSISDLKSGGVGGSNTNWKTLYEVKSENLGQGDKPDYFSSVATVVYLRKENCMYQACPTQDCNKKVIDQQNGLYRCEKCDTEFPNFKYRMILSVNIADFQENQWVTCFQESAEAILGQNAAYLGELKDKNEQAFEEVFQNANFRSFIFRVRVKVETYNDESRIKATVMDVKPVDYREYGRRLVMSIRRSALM
T3 sequence (P15927 whole entry, chain 2 of 3): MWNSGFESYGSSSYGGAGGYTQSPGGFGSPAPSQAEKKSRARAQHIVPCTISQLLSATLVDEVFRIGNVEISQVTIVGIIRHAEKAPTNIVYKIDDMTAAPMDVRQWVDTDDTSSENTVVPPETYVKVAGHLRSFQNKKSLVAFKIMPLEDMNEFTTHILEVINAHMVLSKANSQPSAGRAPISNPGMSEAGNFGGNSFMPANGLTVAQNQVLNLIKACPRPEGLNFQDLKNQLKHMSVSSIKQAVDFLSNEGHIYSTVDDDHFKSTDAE
T3 sequence (P35244 whole entry, chain 3 of 3): as the sequence (P35244 whole entry, chain 3 of 3) above
T2 sequence (P27694 181-441): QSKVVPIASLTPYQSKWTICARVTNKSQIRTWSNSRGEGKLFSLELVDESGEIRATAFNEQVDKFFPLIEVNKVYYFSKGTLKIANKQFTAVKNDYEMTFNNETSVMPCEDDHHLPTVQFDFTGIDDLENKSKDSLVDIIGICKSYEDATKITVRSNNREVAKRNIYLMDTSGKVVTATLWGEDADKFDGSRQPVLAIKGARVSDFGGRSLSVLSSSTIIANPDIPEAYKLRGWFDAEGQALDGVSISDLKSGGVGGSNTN
RPA-DE, sequence (P15927 43-171, chain 1 of 2): as the sequence (P15927 43-171, chain 2 of 3) above
RPA-DE, sequence (P35244 whole entry, chain 2 of 2): as the sequence (P35244 whole entry, chain 3 of 3) above
RPA-C, sequence (P27694 432-595 V435T/W442Q/V465T/V469T/F523S/F567S/I571T): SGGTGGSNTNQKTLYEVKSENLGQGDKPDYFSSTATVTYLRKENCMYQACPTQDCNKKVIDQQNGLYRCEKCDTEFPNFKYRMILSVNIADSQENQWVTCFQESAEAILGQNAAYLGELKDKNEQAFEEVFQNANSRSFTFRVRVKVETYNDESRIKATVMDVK

Regarding TAGGGGAAGGGTTGGAGTGGGTT (structured_DNA, 18-carbon spacer (sp18) at 5' end) [Gq23 (FP)], the Kd in [1] is 11.9 µM; in [2], 3.28; in [3], 0.85; in series [4], ~0.04 0.02; in [5], 0.16; in [6] it was 6.68. Further, the Kd in [7] turned out to be 3.62; in series [8], 0.37; in series [9], 0.55; in series [10], 0.44.
